Among the data in ChEMBL document CHEMBL1140664, “Asymmetrical ligand binding by abscisic acid 8'-hydroxylase” (Bioorg Med Chem, 2007) are Km values, retold here.

Substrate in this data set: CC1=CC(=O)CC(C)(C)[C@@]1(O)/C=C/C(C)=C\C(=O)O
Kind of data set: Activity of Arabidopsis thaliana recombinant CYP707A3.

B1: Abscisic acid 8'-hydroxylase 3 (Arabidopsis thaliana) (protein)
chain: MDFSGLFLTLSAAALFLCLLRFIAGVRRSSSTKLPLPPGTMGYPYVGETFQLYSQDPNVFFAAKQRRYGSVFKTHVLGCPCVMISSPEAAKFVLVTKSHLFKPTFPASKERMLGKQAIFFHQGDYHSKLRKLVLRAFMPDAIRNMVPHIESIAQESLNSWDGTQLNTYQEMKTYTFNVALISILGKDEVYYREDLKRCYYILEKGYNSMPINLPGTLFHKAMKARKELAQILANILSKRRQNPSSHTDLLGSFMEDKAGLTDEQIADNIIGVIFAARDTTASVLTWILKYLADNPTVLEAVTEEQMAIRKDKKEGESLTWEDTKKMPLTYRVIQETLRAATILSFTFREAVEDVEYEGYLIPKGWKVLPLFRNIHHNADIFSDPGKFDPSRFEVAPKPNTFMPFGSGIHSCPGNELAKLEISVLIHHLTTKYRWSIVGPSDGIQYGPFALPQNGLPIALERKP
Regarding B1, the Michaelis constant (Km) (as a rule, the substrate concentration at which the rate is half of its maximum) was determined as 0.71 µM.
